Measurements: the supplement of paper PMC10724198
± gives the standard deviation of the averaged measurements.

test system: Saccharomyces cerevisiae; assay: protein stability index of tFT-peptide fusion (C-terminal peptide) (PSI (0-1 scale)); higher = more stable (slower turnover); conditions: genetic background: wild type; temperature: 30 C
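Further: PSI is a weighted mean of sequencing reads over stability bins, variants kept only with over 10 reads, mCherry proximal and sfGFP distal, peptide attached via GGGS linker.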

RGLVRLIRGGYN and LVVSHMSQPISM are within error of each other in protein stability index: 0.698 ± 0.18 for the first, 0.64 ± 0.03 for the second.

SAGPNCVWSSYN and GVVPCVVGFICG are within error of each other in protein stability index: 0.732 ± 0.0098 for the first, 0.687 ± 0.04 for the second.

PPLPRSPSPPPP and RVGWCGGWRGGR are within error of each other in protein stability index: 0.644 ± 0.028 for the first, 0.677 ± 0.059 for the second.

First: AGGAASWPAFFP
Second: GLGVCGTGIGGV
The protein stability index of the first is higher: 0.793 ± 0.02 for the first, 0.656 ± 0.014 for the second.

First: YRCVQKEIVQRY
Second: FHFLCLVGSFRG
The protein stability index of the first is higher: 0.693 ± 0.056 for the first, 0.528 ± 0.037 for the second.

SQAFPPADLRPR and WERGGGGRVCGW are within error of each other in protein stability index: 0.719 ± 0.058 for the first, 0.754 ± 0.02 for the second.

Compared with KATIRRGGKKEK, PGRSRGGPPERR is lower in protein stability index: 0.682 ± 0.014 for the first, 0.6386 ± 0.0035 for the second.

First: YLCVLASLSSTF
Second: RNRKQEKKENKN
The protein stability index of the first is lower: 0.591 ± 0.022 for the first, 0.695 ± 0.022 for the second.

FGASYLGSLLDV and GWAVGVGGGRGR are within error of each other in protein stability index: 0.699 ± 0.057 for the first, 0.686 ± 0.017 for the second.

PPPASPLVPPSP and SEIKKNKLTVMK are within error of each other in protein stability index: 0.712 ± 0.021 for the first, 0.677 ± 0.016 for the second.

PPPRSPPFPSPL and PPLRLSHFPRAD are within error of each other in protein stability index: 0.689 ± 0.042 for the first, 0.659 ± 0.06 for the second.

TTCLYYDLQIPM and KKKKKLKERRKI are within error of each other in protein stability index: 0.672 ± 0.015 for the first, 0.668 ± 0.019 for the second.

RPLNLPPPPAPF and VGSRWNKELSQS are within error of each other in protein stability index: 0.659 ± 0.072 for the first, 0.725 ± 0.081 for the second.

FSCLRSINRDVG and HLHAPSPPTLTL are within error of each other in protein stability index: 0.702 ± 0.044 for the first, 0.682 ± 0.013 for the second.

LDAFYVNVGLFG and TNCNSHKLMAAL are within error of each other in protein stability index: 0.732 ± 0.045 for the first, 0.679 ± 0.011 for the second.

Going from FLASFSSFMFYL to QAVVGRVRLRGE, the protein stability index rises from 0.591 ± 0.016 to 0.6775 ± 0.0017.

PSAPTNPHARLA and GGGMCGRSGGRR are within error of each other in protein stability index: 0.689 ± 0.051 for the first, 0.706 ± 0.011 for the second.

LWFPLCRLVRRD and PPPTPSSLLSTP are within error of each other in protein stability index: 0.682 ± 0.025 for the first, 0.701 ± 0.057 for the second.

SLPLIPCPSPPL and FNIIHKKNTKEI are within error of each other in protein stability index: 0.751 ± 0.065 for the first, 0.778 ± 0.03 for the second.

First: SAPYLSTTLSVK
Second: LPPLLDSPPCSP
The protein stability index of the first is lower: 0.671 ± 0.011 for the first, 0.733 ± 0.04 for the second.

SMSEYGLLTMLE and SNIKEYKSINGR are within error of each other in protein stability index: 0.669 ± 0.011 for the first, 0.666 ± 0.02 for the second.

Going from KTKKYIQKNKKR to AVGGWRAAGGGG, the protein stability index falls from 0.773 ± 0.012 to 0.7114 ± 0.0042.

RLLKRAVRKIFT and SSLTTCFLSFPP are within error of each other in protein stability index: 0.61808 ± 0.00049 for the first, 0.668 ± 0.066 for the second.

Compared with LAGRARLVMCPR, PLRLPVPLPSPP is higher in protein stability index: 0.639 ± 0.0068 for the first, 0.6571 ± 0.0062 for the second.

VCVFFLFGYFRL and RGGPSPAASSRG are within error of each other in protein stability index: 0.562 ± 0.22 for the first, 0.725 ± 0.057 for the second.

WISAPTDRNITN and VPSLRSTLPPPL are within error of each other in protein stability index: 0.713 ± 0.0095 for the first, 0.731 ± 0.051 for the second.

GRVQARGRPGLD and PRPHPPPLPCPP are within error of each other in protein stability index: 0.632 ± 0.045 for the first, 0.714 ± 0.04 for the second.

PFGPRLTQRSRP and PLRLLSTPSPLS are within error of each other in protein stability index: 0.697 ± 0.039 for the first, 0.755 ± 0.049 for the second.

First: PSPPPVLLPFFT
Second: PLWHCFRFLSGS
The protein stability index of the first is higher: 0.711 ± 0.08 for the first, 0.607 ± 0.014 for the second.

EGDRWAGEVVRG and SFPFSCSSSVTH are within error of each other in protein stability index: 0.705 ± 0.011 for the first, 0.72 ± 0.055 for the second.

PVPPLRRFPPLF and MKRLTCGGFNLE are within error of each other in protein stability index: 0.648 ± 0.036 for the first, 0.704 ± 0.03 for the second.

First: PLLPRLNIPREF
Second: PPFTARPATLAR
The protein stability index of the first is higher: 0.658 ± 0.056 for the first, 0.565 ± 0.017 for the second.

RRKGRKTSMRNG and PPPLPPIPSRPH are within error of each other in protein stability index: 0.667 ± 0.048 for the first, 0.701 ± 0.019 for the second.

PSPPPPPPPSVR and LFELVRTCDRCV are within error of each other in protein stability index: 0.69 ± 0.042 for the first, 0.7 ± 0.03 for the second.

SCLSLSGLPSPL and WDVGSHRGGFWL are within error of each other in protein stability index: 0.677 ± 0.062 for the first, 0.713 ± 0.02 for the second.

Going from LLTLPPPRLLSL to PPPPDPPAPSSP, the protein stability index rises from 0.629 ± 0.022 to 0.749 ± 0.078.

GGGGGGVEPCFV and AVCWDVSRCLGL are within error of each other in protein stability index: 0.668 ± 0.041 for the first, 0.7 ± 0.019 for the second.

Going from DHCRTQHLGLEM to FRPPVPPPPVLP, the protein stability index falls from 0.725 ± 0.015 to 0.683 ± 0.012.

SSPPPPALPEYQ and PPPPRTLASPSY are within error of each other in protein stability index: 0.699 ± 0.0082 for the first, 0.679 ± 0.026 for the second.

LFVMGSACPLRI and ARVAPPWRSTRA are within error of each other in protein stability index: 0.681 ± 0.029 for the first, 0.683 ± 0.049 for the second.

In the case of FFWTTPRFPFPS, the protein stability index is reported as 0.725 ± 0.021.
